Data reported in the supplement of paper PMC11908140.

B1: library; numbered along this chain (parent)
chain: MRKPRAAVGSGHRKQAASQEGRQKHAKNNSQAKPSACDGLARQPEEVVLQASVSSYHLFRDVAEVTAFRGSLLSWYDQEKRDLPWRRRAEDEMDLDRRAYAVWVSEVMLQQTQVATVINYYTGWMQKWPTLQDLASASLEEVNQLWAGLGYYSRGRRLQEGARKVVEELGGHMPRTAETLQQLLPGVGRYTAGAIASIAFGQATGVVDGNVARVLCRVRAIGADPSSTLVSQQLWGLAQQLVDPARPGDFNQAAMELGATVCTPQRPLCSQCPVESLCRARQRVEQEQLLASGSLSGSPDVEECAPNTGQCHLCLPPSEPWDQTLGVVNFPRKASRKPPREESSATCVLEQPGALGAQILLVQRPNSGLLAGLWEFPSVTWEPSEQLQRKALLQELQRWAGPLPATHLRHLGEVVHTFSHIKLTYQVYGLALEGQTPVTTVPPGARWLTQEEFHTAAVSTAMKKVFRVYQGQQPGTCMGSKRSQVSSPCSRKKPRMGQQVLDNFFRSHISTDAHSLNSAAQ

Variants of: B1
Assay: 8OG:A repair function score (normalized; synonymous = 0, nonsense = -1) (normalized log-likelihood score); higher = more repair activity (WT-like)
Settings: with 8OG:A DNA repair reporter (GFP) in HEK-293 MUTYH KO cells
In short: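 Per-tile Rosace fitness scores were converted to a normalized repair function score anchored on synonymous and nonsense distributions. That scale puts synonymous medians at 0 and nonsense medians at -1. Variants with starting counts under 300 counts per million were discarded. Input came from sorting viable mCherry+ MUTYH knockout HEK-293 cells, carrying lentiviral MUTYH cDNA NNN codon-scan libraries in 10 pg/ml doxycycline and an 8OG:A GFP repair reporter, into GFP+ and GFP− bins at 72 h, three replicates per tile, followed by tile amplicon sequencing.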
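Further: cells sorted at 72 h after reporter transfection.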

8OG:A repair function score: each site, then its substitutions
Q426: K 0.106; M -0.183; A -0.0345; F -0.17; E -0.28; C -0.0839; T -0.247; G -0.158; I -0.057; Y 0.0116; R -0.143; V -0.068; P -0.928; H -0.0882; W -0.215; S -0.0807; L -0.0573; D -0.46; N -0.05
Y428: H -0.753; A -1.05; Q -1.2; R -1.14; M -0.656; F -0.153; D -1.09; V -1.03; N -1.01; L -0.828; P -1.18; K -0.832; I -1.03; T -1.1; G -1.13; S -0.915; E -1.1; C -0.883
H420: G -0.0793; R -0.393; V -0.371; F -0.576; L -0.527; T -0.525; Q -0.0915; I -0.666; Y -0.672; N -0.608; E -0.781; P -0.877; S -0.494; M -0.23; W -0.434; K -0.792
K422: G -0.491; M -0.42; W -0.317; Q 0.195; S -0.227; D -0.458; T -0.156; I -0.297; P -1.09; H -0.22; C -0.221; R 0.334; Y -0.355; A -0.0566; E -0.492; L -0.353; F -0.584; V -0.231; N -0.21
V427: M -0.599; P -1.13; N -1.15; I -0.18; W -0.831; A -0.455; E -1.24; F -1.1; H -1.08; G -1.03; K -1.06; L -0.345; D -1.2; S -0.925; Y -1.2; R -1.04; Q -1.16; C -0.195; T -0.409
T424: Y -0.181; L -0.165; P -0.685; F -0.0268; K -0.203; A -0.121; I 0.0389; R -0.0759; D -0.256; Q -0.355; M -0.383; W -0.204; V -0.09; E -0.45; H -0.235; C -0.0623; G -0.293; N -0.156; S -0.192
Y425: V 0.00816; S -0.31; N -0.608; I 0.315; H -0.0609; C -0.509; M 0.236; T -0.255; D -0.805; K -0.0804; G -0.907; Q -0.626; L -0.213; F -0.11; A -0.637; P -0.934; E -0.544; W -0.328; R -0.476
I421: L 0.0792; W -0.59; Q -0.51; M -0.139; V -0.0973; P -1.15; G -0.609; A -0.443; H -0.201; D -0.852; N -0.83; C -0.3; F -0.142; T -0.299; S -0.59; E -0.385; Y -0.435; K -0.173; R -0.207
L423: R -0.232; F -0.0863; Y -0.0686; S 0.137; T -0.513; A 0.0643; H 0.0797; W -0.0181; M 0.142; E -0.289; N -0.091; G 0.0807; P -0.683; K -0.269; I -0.059; Q 0.416; V -0.132; C 0.0721; D -0.261
